These results are taken from PMC4409568 (Neuron, 2015).

Test [1] deals with Arc(207-278) binding to TARPγ2 peptide (Rattus norvegicus, UniProt Q63053). The settings on record: Figure S5C; chlorpromazine data not shown.
Test [2] deals with T1, RnArc (207-370), Arc GAG domain, wild type (rat, UniProt Q63053 207-370).
T1 sequence (looked up): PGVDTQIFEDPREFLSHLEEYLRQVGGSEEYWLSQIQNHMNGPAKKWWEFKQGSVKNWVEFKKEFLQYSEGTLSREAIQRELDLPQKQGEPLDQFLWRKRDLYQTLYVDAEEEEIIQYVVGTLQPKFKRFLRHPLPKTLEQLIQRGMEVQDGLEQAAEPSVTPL
In words: pull-down.

Another test addresses T2, Arc N-lobe (207-277) (rat, UniProt Q63053 207-277).
T2 sequence (looked up): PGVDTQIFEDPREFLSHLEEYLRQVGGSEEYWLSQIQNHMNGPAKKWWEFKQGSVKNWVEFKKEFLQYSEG
In words: pull-down.

Test [3] concerns the target T1, RnArc (207-370), Arc GAG domain, wild …. In words: fluorescence polarisation.

No end group written: not given here.

Turning to `CN1CCN(CCCN2c3ccccc3Sc3ccc(C(F)(F)F)cc32)CC1` [Trifluoperazine], the “inhibition of Arc N-lobe binding” value in test [1] is given as “inhibited binding, but with lower affinity”. For the molecule {GST}-DRHKQLRATARATDYLQASAITRIPSYRYRYQRRSRSSSRSTEPS (domain or fragment, mouse, UniProt O88602 203-247, looked up) [GST-TARPγ2 fragment (203-247)], the binding result in test [2] was “binds”. TGLIENRPQSPAAGRTPVFVSPTPPPPPPPLPSALSTSSLRAS (domain or fragment, mouse, UniProt Q8R5H6 301-343, looked up) [GST-WAVE1 (aa301-343)]: the binding result in the test with Arc N-lobe (207-277) is “binds”.

B1: GST-TARPγ2 cytoplasmic tail (203-323) (domain or fragment, mouse, UniProt O88602 203-323, looked up)
chain: DRHKQLRATARATDYLQASAITRIPSYRYRYQRRSRSSSRSTEPSHSRDASPVGVKGFNTLPSTEISMYTLSRDPLKAATTPTATYNSDRDNSFLQVHNCIQKDSKDSLHANTANRRTTPV
Regarding B1, in test [3], the binding result was “binds”.

As for RTPVFV (peptide, UniProt Q8R5H6 315-320, looked up) [WAVE1 peptide (aa315-320)], the binding result in test [3] is recorded as “binds”.
